Test results taken from PMC9462884, “Tensin3 interaction with talin drives the formation of fibronectin-associated fibrillar adhesions” (The Journal of Cell Biology, 2022).

Biological target: T1, talin R11 (recombinant wild-type mouse talin1 fragment R11) (mouse, UniProt P26039 1974-2140)
T1 construct: talin1, mouse, R11 rod domain, residues 1,974–2,140; 15N-labelled for the NMR experiments; also called talin R11 domain
Test: ITC; 80 µM R11 in the cell, 1.2 mM peptide in the syringe; 20 mM sodium phosphate pH 6.5, 50 mM NaCl, 0.5 mM TCEP, 25°C; single-site binding model
Conditions: both partners purified

T1 sequence (P26039 1974-2140): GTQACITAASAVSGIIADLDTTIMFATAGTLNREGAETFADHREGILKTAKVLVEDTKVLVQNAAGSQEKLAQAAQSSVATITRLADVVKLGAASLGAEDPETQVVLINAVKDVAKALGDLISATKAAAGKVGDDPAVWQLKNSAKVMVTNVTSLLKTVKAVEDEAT

- Kd: 17 µM
- dH: 4.8 kcal/mol
B1: tensin3 H1 peptide (peptide)
chain: TLDIDQSIEQLNRLILELDPT
modifications: synthetic peptide; terminal capping not stated. Limits conflict in the text: methods give 692-712 (used here, from the peptide purchase description and close to the predicted helix 690-710), results …
